We go through two variants from IntAct's records for PubMed 40624043.

B1: NTF2-related export protein 2 (Homo sapiens), Q9NPJ8-3 (parent)
chain: MRKYRSHWSQGDREGYQRRSNYYEGPHTSHSSPADRTREEVVTPTLPEHTATRSQMATSLDFKTYVDQACRAAEEFVNIYYETMDKRRRALTRLYLDKATLIWNGNAVSGLDALNNFFDTLPSSEFQVNMLDCQPVHEQATQSQTTVLVVTSGTVKFDGNKQHFFNQNFLLTAQSTPNNTVWKIASDCFRFQDWSSS
partner: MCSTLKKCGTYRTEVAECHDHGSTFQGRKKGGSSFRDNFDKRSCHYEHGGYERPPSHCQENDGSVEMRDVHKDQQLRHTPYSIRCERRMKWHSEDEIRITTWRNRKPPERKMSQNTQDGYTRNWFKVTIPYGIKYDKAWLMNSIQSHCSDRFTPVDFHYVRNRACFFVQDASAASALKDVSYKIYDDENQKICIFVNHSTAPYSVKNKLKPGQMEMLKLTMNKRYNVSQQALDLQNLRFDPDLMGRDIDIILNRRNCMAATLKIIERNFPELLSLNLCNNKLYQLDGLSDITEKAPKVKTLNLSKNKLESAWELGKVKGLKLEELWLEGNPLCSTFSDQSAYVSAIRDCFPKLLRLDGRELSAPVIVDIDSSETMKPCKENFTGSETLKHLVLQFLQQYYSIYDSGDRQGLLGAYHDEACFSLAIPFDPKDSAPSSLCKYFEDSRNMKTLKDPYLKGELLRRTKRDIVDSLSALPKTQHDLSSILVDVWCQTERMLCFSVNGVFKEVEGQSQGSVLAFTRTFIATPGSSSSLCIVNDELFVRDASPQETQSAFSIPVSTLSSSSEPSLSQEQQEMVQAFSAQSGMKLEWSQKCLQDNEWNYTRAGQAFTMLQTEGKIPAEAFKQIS
B2: NTF2-related export protein 2 (Homo sapiens), Q9NPJ8-3 (parent)
chain: B1 chain
partner: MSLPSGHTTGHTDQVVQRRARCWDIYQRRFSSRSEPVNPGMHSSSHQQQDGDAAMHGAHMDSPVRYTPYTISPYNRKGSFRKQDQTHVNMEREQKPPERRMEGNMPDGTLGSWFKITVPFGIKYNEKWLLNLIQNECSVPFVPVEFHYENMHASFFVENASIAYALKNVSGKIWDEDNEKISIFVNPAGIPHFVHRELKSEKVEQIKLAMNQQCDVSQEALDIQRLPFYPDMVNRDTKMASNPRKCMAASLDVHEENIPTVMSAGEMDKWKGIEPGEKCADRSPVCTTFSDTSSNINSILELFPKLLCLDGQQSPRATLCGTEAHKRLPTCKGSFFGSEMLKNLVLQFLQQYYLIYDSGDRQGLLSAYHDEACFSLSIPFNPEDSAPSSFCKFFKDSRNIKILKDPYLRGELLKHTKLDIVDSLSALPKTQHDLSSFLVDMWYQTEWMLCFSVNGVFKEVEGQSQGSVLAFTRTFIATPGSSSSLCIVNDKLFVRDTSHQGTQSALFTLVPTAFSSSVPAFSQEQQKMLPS

One assay covers variants of B1. Particulars: with nxf2_human NXF2B.
With MRKYRSHWSQGDREGYQRRSNYYEGPHTSHSSPADRTREEVVTPTLPEHTATRSQMATSLDFKTYVDQACRAAEEFVNIYYETMDKRRRSLTRLYLDKATLIWNGNAVSGLDALNNFFDTLPSSEFQVNMLDCQPVHEQATQSQTTVLVVTSGTVKFDGNKQHFFNQNFLLTAQSTPNNTVWKIASDCFRFQDWSSS [A90S], the “effect of a mutation on the interaction” value is listed as “with no effect”.

Variants of B2 are the subject of another assay. Particulars: with NXF3, Q9H4D5-1.
Consider MRKYRSHWSQGDREGYQRRSNYYEGPHTSHSSPADRTREEVVTPTLPEHTATRSQMATSLDFKTYVDQACRAAEEFVNIYYETMDKRRRSLTRLYLDKATLIWNGNAVSGLDALNNFFDTLPSSEFQVNMLDCQPVHEQATQSQTTVLVVTSGTVKFDGNKQHFFNQNFLLTAQSTPNNTVWKIASDCFRFQDWSSS [A90S], for which the “effect of a mutation on the interaction” value was “with no effect”.
